The values below come from paper PMC11822739.

“And” between values parts separate entries of the source, which are not always exact repeats. Identical values can stand only once. Like-named read-outs stand apart in the source and are kept apart here.

Test [1] concerns the target HBV truncated core protein CP149 dimer (hepatitis B virus). The test can be described thus: SEC + native MS.
Test [2] has the same target. The experiment in a line: SEC-MALS; SEC-UV-MALS-RI; 7.8 x 300 mm 1000 Å 3 μm column; 20 mM phosphate, 276 mM NaCl, 5.4 mM KCl, pH 7.4 (2x dPBS); flow rates 0.29 and 1.15 mL/min; 20 μL of 2 mg/mL Qβ, 14.4 μL of 0.67 mg/mL HBV VLPs with residual CP149 dimer; dn/dc 0.185 mL/mg. Background: Size exclusion chromatography separates by hydrodynamic size, large species first.
For test [3], the target named is bacteriophage Qβ virus-like particles (bacteriophage Qβ). Described as above.
Test [4] deals with bovine thyroglobulin (bovine) (UniProt P01267). The experiment in a line: SEC + native MS.
Test [5] shares this target. The experiment in a line: SEC + native MS. This is another data set of the same source.

For the substance “HBV truncated core protein CP149 dimer (domain or fragment)”, the stoichiometry N was 120 CP dimers and 90 CP dimers in test [1]; 120 CP dimers and 90 CP dimers in test [2]. In the case of “bacteriophage Qβ virus-like particles (complex)”, the stoichiometry N (x the molar mass of peak 3) in test [3] is 4 and 2. On to bovine thyroglobulin, P01267 20-2769, for which the stoichiometry N was 2 in test [4]; 4 and 3 in test [5].

The stoichiometry N is the number of molecules, sites or subunits per partner or assembly.
